Results: paper PMC10681713, “RAD51 paralogs synergize with RAD51 to protect reversed forks from cellular nucleases” (Nucleic Acids Research, 2023)

Legend:
[1] = biological target: Flag-RAD51C (of the BCDX2 complex) (human) (UniProt O43502); assay: native MS; purified BCDX2 in 500 mM ammonium acetate pH 7.5; low activation energy for the intact complex, in-source trapping (-50 to -250 V) to dissociate it
[2] = biological target: T1, BCDX2 (RAD51B-RAD51C-RAD51D-XRCC2) (Homo sapiens, UniProt O15315;O43502;O75771;O43543 1-384;1-376;1-328;1-280); assay: EMSA; 1 mM ATP, 58 nM DNA; Buffer E (composition not in the material), 37 °C, 10 min; paralogs: 50 mM KCl, 1 mM ATP, 0.8% agarose gel; RAD51: 100 mM KCl, 2 mM ATP, 6% TBE-PAGE; conditions: protein: recombinant, tags: N-terminal Flag on RAD51C, N-terminal His6 on XRCC2, TEV sites, copies: 1;1;1;1
T1 sequence 1: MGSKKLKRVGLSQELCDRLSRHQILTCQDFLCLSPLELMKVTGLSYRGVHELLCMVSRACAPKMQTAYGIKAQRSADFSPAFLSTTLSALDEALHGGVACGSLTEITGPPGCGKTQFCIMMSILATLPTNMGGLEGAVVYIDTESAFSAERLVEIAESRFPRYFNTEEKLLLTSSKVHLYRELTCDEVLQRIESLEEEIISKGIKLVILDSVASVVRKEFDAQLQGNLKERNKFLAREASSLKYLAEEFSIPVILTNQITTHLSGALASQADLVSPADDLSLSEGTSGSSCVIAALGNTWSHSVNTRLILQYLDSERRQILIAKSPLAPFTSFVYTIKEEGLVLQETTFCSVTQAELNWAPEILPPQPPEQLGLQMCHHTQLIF
T1 sequence 2: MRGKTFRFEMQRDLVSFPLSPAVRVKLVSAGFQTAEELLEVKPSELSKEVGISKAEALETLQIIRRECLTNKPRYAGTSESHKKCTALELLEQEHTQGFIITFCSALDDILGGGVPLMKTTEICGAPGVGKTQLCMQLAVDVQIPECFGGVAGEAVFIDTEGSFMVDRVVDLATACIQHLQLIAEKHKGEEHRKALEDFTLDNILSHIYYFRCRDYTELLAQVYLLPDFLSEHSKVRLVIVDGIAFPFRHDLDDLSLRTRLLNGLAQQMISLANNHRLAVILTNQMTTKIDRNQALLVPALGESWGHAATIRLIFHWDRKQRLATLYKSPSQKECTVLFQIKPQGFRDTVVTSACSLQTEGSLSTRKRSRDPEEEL
T1 sequence 3: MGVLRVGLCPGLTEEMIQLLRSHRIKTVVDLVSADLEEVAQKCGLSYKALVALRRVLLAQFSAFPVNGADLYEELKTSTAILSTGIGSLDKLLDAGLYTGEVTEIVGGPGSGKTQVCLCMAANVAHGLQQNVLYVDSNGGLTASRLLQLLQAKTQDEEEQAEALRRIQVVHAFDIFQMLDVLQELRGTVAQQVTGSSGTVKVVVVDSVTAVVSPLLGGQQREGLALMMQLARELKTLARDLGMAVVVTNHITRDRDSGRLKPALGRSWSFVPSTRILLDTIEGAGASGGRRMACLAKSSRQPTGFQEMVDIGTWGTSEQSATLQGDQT
T1 sequence 4: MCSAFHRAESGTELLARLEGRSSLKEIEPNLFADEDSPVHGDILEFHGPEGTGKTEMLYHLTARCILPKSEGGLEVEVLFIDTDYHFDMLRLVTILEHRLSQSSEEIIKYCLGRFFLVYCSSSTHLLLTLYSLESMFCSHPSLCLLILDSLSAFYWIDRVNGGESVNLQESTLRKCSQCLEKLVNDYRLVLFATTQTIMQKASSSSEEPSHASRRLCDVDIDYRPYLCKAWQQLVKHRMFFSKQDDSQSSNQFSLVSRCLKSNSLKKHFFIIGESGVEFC

[3] = biological target: T2, His6-XRCC2 (of the BCDX2 complex) (human, UniProt O43543 1-280); assay: native MS; purified BCDX2 in 500 mM ammonium acetate pH 7.5; low activation energy for the intact complex, in-source trapping (-50 to -250 V) to dissociate it; conditions: both partners purified
T2 construct: human XRCC2, cDNA; a TEV cutting site stands between the tag and the gene; No TEV cleavage is described in the purification; source: Expi293F cells, transfected, co-expressed from pcDNA3.4-tetrad-BCDX2; purified as part of the complex (Ni-NTA, anti-Flag M2 agarose, Superdex 200); not shown: His6, N-terminal, kept
T2 sequence (looked up): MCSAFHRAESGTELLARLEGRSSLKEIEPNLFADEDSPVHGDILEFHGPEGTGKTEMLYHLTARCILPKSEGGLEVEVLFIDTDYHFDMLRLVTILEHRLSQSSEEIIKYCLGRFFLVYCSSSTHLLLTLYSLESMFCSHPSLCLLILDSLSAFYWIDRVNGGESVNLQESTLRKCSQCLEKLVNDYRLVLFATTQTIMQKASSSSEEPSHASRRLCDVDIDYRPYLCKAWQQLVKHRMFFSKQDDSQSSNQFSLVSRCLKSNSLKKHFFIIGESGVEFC

[4] = biological target: T3, CX3 (RAD51C-XRCC3) (Homo sapiens, UniProt O43502;O43542 1-376;1-346); assay: EMSA; 1 mM ATP, 58 nM DNA; Buffer E (composition not in the material), 37 °C, 10 min; paralogs: 50 mM KCl, 1 mM ATP, 0.8% agarose gel; RAD51: 100 mM KCl, 2 mM ATP, 6% TBE-PAGE; conditions: protein: recombinant, tags: N-terminal His6-Flag on RAD51C, copies: 1;1, 25 bp duplex
T3 sequence 1: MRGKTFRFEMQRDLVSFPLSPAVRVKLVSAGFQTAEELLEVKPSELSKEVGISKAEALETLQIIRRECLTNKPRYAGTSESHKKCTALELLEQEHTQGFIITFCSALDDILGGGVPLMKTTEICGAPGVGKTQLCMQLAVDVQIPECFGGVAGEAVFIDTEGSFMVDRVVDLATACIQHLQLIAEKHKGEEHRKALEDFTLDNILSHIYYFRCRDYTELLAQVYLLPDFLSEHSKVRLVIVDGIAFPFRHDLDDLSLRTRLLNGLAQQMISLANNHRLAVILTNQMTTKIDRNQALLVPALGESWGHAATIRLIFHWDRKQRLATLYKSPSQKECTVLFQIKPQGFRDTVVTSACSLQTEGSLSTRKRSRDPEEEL
T3 sequence 2: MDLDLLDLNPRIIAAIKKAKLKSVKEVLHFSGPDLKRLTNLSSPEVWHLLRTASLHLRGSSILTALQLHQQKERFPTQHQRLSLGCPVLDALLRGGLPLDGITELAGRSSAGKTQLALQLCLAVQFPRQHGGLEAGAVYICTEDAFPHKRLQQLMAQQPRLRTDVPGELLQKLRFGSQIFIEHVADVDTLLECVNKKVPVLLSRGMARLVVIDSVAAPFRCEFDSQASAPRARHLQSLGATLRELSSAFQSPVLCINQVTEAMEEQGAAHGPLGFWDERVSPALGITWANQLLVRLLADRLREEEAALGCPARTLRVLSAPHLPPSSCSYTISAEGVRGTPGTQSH

In the case of “RAD51B (from UniProt O15315 1-384) (natural protein)”, the stoichiometry N [1] is reported as 1.

B1: dsDNA 55 bp (oligo 13 + oligo 14) (dsDNA)
DNA 1: TTAGAGCTTAATTGCTGAATCTGGTGCTGTGGGTGAACCTGCAGGTGGGCAAAGA
DNA 2: TCTTTGCCCACCTGCAGGTTCACCCACAGCACCAGATTCAGCAATTAAGCTCTAA
B1: no binding ([2]; label: 5' Cy3 on oligo 13, blunt).

B2: RAD51D (natural protein, human, UniProt O75771 1-328, looked up)
chain: MGVLRVGLCPGLTEEMIQLLRSHRIKTVVDLVSADLEEVAQKCGLSYKALVALRRVLLAQFSAFPVNGADLYEELKTSTAILSTGIGSLDKLLDAGLYTGEVTEIVGGPGSGKTQVCLCMAANVAHGLQQNVLYVDSNGGLTASRLLQLLQAKTQDEEEQAEALRRIQVVHAFDIFQMLDVLQELRGTVAQQVTGSSGTVKVVVVDSVTAVVSPLLGGQQREGLALMMQLARELKTLARDLGMAVVVTNHITRDRDSGRLKPALGRSWSFVPSTRILLDTIEGAGASGGRRMACLAKSSRQPTGFQEMVDIGTWGTSEQSATLQGDQT
notes: No tag is described on this chain; also called D (in BCDX2 and DX2); source: Expi293F cells, transfected, co-expressed with the other paralogs from one plasmid; purified as part of the complex (Ni-NTA, anti-Flag M2 agarose, Superdex 200)
B2 was tested, and the “stoichiometry N” value [3] was 1.

B3: 5' overhang DNA (oligo 7 + oligo 8) (mixed)
DNA 1: GGGTGAACCTGCAGGTGGGCAAAGA
DNA 2: ACGCTGCCGAATTCTACCAGTGCCTTGCTAGGACATCTTTGCCCACCTGCAGGTTCACCC
modifications: oligo 8: phosphorothioate bonds at both ends (first 5 and last 5 linkages)
B3: binds ([2]; label: 5' Cy3 on oligo 7, 25 bp duplex, 5' overhang 35 nt on strand 2); binds ([4]; label: 5' Cy3 on oligo 7, 5' overhang 35 nt on strand 2).

B4: 3' overhang DNA (oligo 9 + oligo 8) (mixed)
DNA 1: AGGCACTGGTAGAATTCGGCAGCGT
DNA 2: ACGCTGCCGAATTCTACCAGTGCCTTGCTAGGACATCTTTGCCCACCTGCAGGTTCACCC
modifications: oligo 8: phosphorothioate bonds at both ends (first 5 and last 5 linkages)
B4: binds ([2]; label: 3' Cy3 on oligo 9, 25 bp duplex, 3' overhang 35 nt on strand 2); binds ([4]; label: 3' Cy3 on oligo 9, 3' overhang 35 nt on strand 2).
